From PMC7301450

Molecular target: α-CD64-scFv
Assay: ELISA; wells coated with 10 μg/mL α-CD64-scFv overnight at 4 °C, blocked with 3% BSA/PBS; recombinant CD64 at 0, 0.5, 1.0, 5.0 and 10 ng/mL, room temperature 2 h; detected with rabbit anti-CD64 polyclonal antibody, anti-rabbit HRP and TMB, read at 370 nm

α-CD64-scFv, sequence (heavy, as listed by the source, chain 1 of 2): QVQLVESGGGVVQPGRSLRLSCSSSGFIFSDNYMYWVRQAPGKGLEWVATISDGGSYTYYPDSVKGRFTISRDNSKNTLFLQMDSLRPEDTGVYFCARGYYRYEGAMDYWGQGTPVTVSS
α-CD64-scFv, sequence (light, as listed by the source, chain 2 of 2): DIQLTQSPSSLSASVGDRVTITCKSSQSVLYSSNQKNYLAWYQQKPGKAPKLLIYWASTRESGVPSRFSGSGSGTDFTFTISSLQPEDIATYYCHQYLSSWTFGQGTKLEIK

recombinant human CD64 (from UniProt P12314 16-292) (receptor)
maximum absorbance (at 5 ng/mL CD64): 0.236 absorbance
